B1: TRIM43 (parent)
chain: NRFRVEISFHFEVTNHNIRLFEDV

Variants of: B1
Test: protein stability index of a GFP-peptide fusion (GPS, HEK-293T) (PSI 1-6); higher = more stable
Conditions: c terminus: a fixed tail appended
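Further: lentivirally expressed fusions sorted by FACS into six bins by GFP to DsRed ratio, PSI derived from sequencing read proportions per bin multiplied by bin number.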

| Variant | protein stability index |
| --- | --- |
| NRFRVEISFHFEVTNHNIRLFEDK [V24K] | 2.85 |
| NRFRVEISFHFEVTNHNIRLFEDQ [V24Q] | 3.09 |
| NRFRVEISFHFEVTNHNIRLFEDT [V24T] | 2.44 |
| NRFRVEISFHFEVTNHNIRLFEDF [V24F] | 2.43 |
| NRFRVEISFHFWVTNHNIRLFEDV [E12W] | 2.64 |
| NRFRVEISFHFNVTNHNIRLFEDV [E12N] | 1.39 |
| NRFRVEISFHFIVTNHNIRLFEDV [E12I] | 1.68 |
| NRFRVEISFHFYVTNHNIRLFEDV [E12Y] | 2.51 |
| NRFRVEISFHFEVENHNIRLFEDV [T14E] | 2.04 |
| NRFRVEISFHFEVLNHNIRLFEDV [T14L] | 2.29 |
| NRFRVEISFHFEVYNHNIRLFEDV [T14Y] | 3.83 |
| NRFRVEISFHFEVNNHNIRLFEDV [T14N] | 3.31 |
| NRFRVEISFNFEVTNHNIRLFEDV [H10N] | 2.63 |
| NRFRVEISFSFEVTNHNIRLFEDV [H10S] | 3.4 |
| NRFRVEISFPFEVTNHNIRLFEDV [H10P] | 3.64 |
| NRFRVEISFQFEVTNHNIRLFEDV [H10Q] | 4.08 |
| NRFRVEISFHEEVTNHNIRLFEDV [F11E] | 1.03 |
| NRFRVEISFHIEVTNHNIRLFEDV [F11I] | 2.83 |
| NRFRVEISFHKEVTNHNIRLFEDV [F11K] | 1.46 |
| NRFRVEISFHDEVTNHNIRLFEDV [F11D] | 1.27 |
| NRFRVEISFHTEVTNHNIRLFEDV [F11T] | 2.44 |
| NRFRVEISFHQEVTNHNIRLFEDV [F11Q] | 2.38 |
| NRFRVEISFHFEVTNSNIRLFEDV [H16S] | 2.05 |
| NRFRVEISFHFEVTNANIRLFEDV [H16A] | 3.14 |

| Variant | protein stability index |
| --- | --- |
| NRFRVEISFHFEVTNLNIRLFEDV [H16L] | 1.82 |
| NRFRVEISFHFEVTNYNIRLFEDV [H16Y] | 2.9 |
| NRFRVEISFHFEVTNHQIRLFEDV [N17Q] | 3.45 |
| NRFRVEISFHFEVTNHFIRLFEDV [N17F] | 2.85 |
| NRFRVEISFHFEVTNHKIRLFEDV [N17K] | 2.61 |
| NRFRVEISFHFEVTNHCIRLFEDV [N17C] | 3.65 |
| NRFRVEISDHFEVTNHNIRLFEDV [F9D] | 2.27 |
| NRFRVEISPHFEVTNHNIRLFEDV [F9P] | 2.08 |
| NRFRVEISNHFEVTNHNIRLFEDV [F9N] | 2.22 |
| NRFRVEISHHFEVTNHNIRLFEDV [F9H] | 1.09 |
| NRFRVEISQHFEVTNHNIRLFEDV [F9Q] | 1.28 |
| NRFRVEISEHFEVTNHNIRLFEDV [F9E] | 1.95 |
| NRFRVEISFHFEVTNHNIRLFDDV [E22D] | 2.4 |
| NRFRVEISFHFEVTNHNIRLFPDV [E22P] | 2.14 |
| NRFRVEISFHFEVTNHNIRLFLDV [E22L] | 2.29 |
| NRFRVEISFHFEVTNHNIRLFTDV [E22T] | 2.66 |
| NRFRVEISFHFEVTNHNIRLFQDV [E22Q] | 2.31 |
| NRFRVEISFHFEVTNHNIRLFKDV [E22K] | 2.02 |
| NRFRVEISFHFEVTNHNIRLFHDV [E22H] | 3.18 |
| NSFRVEISFHFEVTNHNIRLFEDV [R2S] | 1.5 |
| NPFRVEISFHFEVTNHNIRLFEDV [R2P] | 2.38 |
| NYFRVEISFHFEVTNHNIRLFEDV [R2Y] | 2.89 |
| NDFRVEISFHFEVTNHNIRLFEDV [R2D] | 2.46 |
| NQFRVEISFHFEVTNHNIRLFEDV [R2Q] | 3.46 |

| Variant | protein stability index |
| --- | --- |
| NRFRVHISFHFEVTNHNIRLFEDV [E6H] | 4.48 |
| NRFRVPISFHFEVTNHNIRLFEDV [E6P] | 2.27 |
| NRFRVVISFHFEVTNHNIRLFEDV [E6V] | 3.86 |
| NRFRVMISFHFEVTNHNIRLFEDV [E6M] | 2.64 |
| NRFRVTISFHFEVTNHNIRLFEDV [E6T] | 4.38 |
| NRFRVSISFHFEVTNHNIRLFEDV [E6S] | 3.18 |
| LRFRVEISFHFEVTNHNIRLFEDV [N1L] | 3.45 |
| CRFRVEISFHFEVTNHNIRLFEDV [N1C] | 3.11 |
| RRFRVEISFHFEVTNHNIRLFEDV [N1R] | 2.37 |
| NRFRVEISFHFEVTNHNIHLFEDV [R19H] | 3.79 |
| NRFRVEISFHFEVTNHNIPLFEDV [R19P] | 1.69 |
| NRFRVEISFHFEVTNHNISLFEDV [R19S] | 3.39 |
| NRFRVEISFHFEVTNHNSRLFEDV [I18S] | 2.35 |
| NRFRVEISFHFEVTNHNHRLFEDV [I18H] | 3.18 |
| NRFRVEISFHFEVTNHNPRLFEDV [I18P] | 3.07 |
| NRFRVEISFHFEVTNHNDRLFEDV [I18D] | 1.3 |
| NRFRVEISFHFEVTNHNYRLFEDV [I18Y] | 3.23 |
| NRFRVEISFHFEVTNHNTRLFEDV [I18T] | 2.09 |
| NRFRVEISFHFEVTNHNWRLFEDV [I18W] | 3.01 |
| NRFRVEICFHFEVTNHNIRLFEDV [S8C] | 2.02 |
| NRFRVEIPFHFEVTNHNIRLFEDV [S8P] | 2.36 |
| NRFRVEIRFHFEVTNHNIRLFEDV [S8R] | 2.43 |
| NRFRVEILFHFEVTNHNIRLFEDV [S8L] | 3.72 |
| NRFRVEIGFHFEVTNHNIRLFEDV [S8G] | 2.38 |

| Variant | protein stability index |
| --- | --- |
| NRFRVEIMFHFEVTNHNIRLFEDV [S8M] | 2.39 |
| NRFRVEISFHFEVTMHNIRLFEDV [N15M] | 2.49 |
| NRFRVEISFHFEVTWHNIRLFEDV [N15W] | 3.34 |
| NRFRVEISFHFEVTDHNIRLFEDV [N15D] | 2.5 |
| NRFRVEISFHFEVTPHNIRLFEDV [N15P] | 3.72 |
| NRFRVEISFHFEVTFHNIRLFEDV [N15F] | 3.62 |
| NRFRVEISFHFEVTLHNIRLFEDV [N15L] | 3.22 |
| NRFRVEKSFHFEVTNHNIRLFEDV [I7K] | 2.12 |
| NRFRVEESFHFEVTNHNIRLFEDV [I7E] | 1.91 |
| NRFRVEPSFHFEVTNHNIRLFEDV [I7P] | 1.81 |
| NRFRVENSFHFEVTNHNIRLFEDV [I7N] | 2.06 |
| NRFRVERSFHFEVTNHNIRLFEDV [I7R] | 2.85 |
| NRFRVETSFHFEVTNHNIRLFEDV [I7T] | 1.68 |
| NRFRVEDSFHFEVTNHNIRLFEDV [I7D] | 2.44 |
| NRFRVEISFHFEVTNHNIRLQEDV [F21Q] | 3.09 |
| NRFRVEISFHFEVTNHNIRLYEDV [F21Y] | 3.98 |
| NRFRVEISFHFEVTNHNIRLWEDV [F21W] | 2 |
| NRFRVEISFHFEVTNHNIRLREDV [F21R] | 1.88 |
| NRFRVEISFHFEVTNHNIRRFEDV [L20R] | 3.74 |
| NRFRVEISFHFEVTNHNIRFFEDV [L20F] | 3.05 |
| NRFRVEISFHFEVTNHNIRYFEDV [L20Y] | 2.13 |
| NRFRVEISFHFEVTNHNIRQFEDV [L20Q] | 3.28 |
